From the supplement of paper PMC6757056
± gives the standard deviation of the averaged measurements.

B1: library; a variant is named by its letters at N, in order (parent)
chain: GCUGUCACCGAGAAACUGUGAAGUAUAUCUUAAACCUGGGCACUUAAAAGAUAUAUGGAGUUAGUAGUGCAACCUGCUCGGUCUGAUGAGUCCNNNNNNGGACGAAACAGC

Experiments:
cyclic di-GMP [1] = variants of: B1; assay: normalized RNA/DNA level without ligand (relative to sTRSVctl = 100) (log10 (% of sTRSVctl)); HEK293T; ligand: cyclic di-GMP (c-di-GMP-II aptamer); higher = less ribozyme self-cleavage, higher mRNA level; details: reporter: mCherry (pCS4076), ligand present: no
Summary of the method: (§1)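 Total RNA, extracted with EDTA 72 h after HEK293T cells were transfected with 4 µg per 6-well well of reporter-linked ribozyme switch library plasmids, was reverse-transcribed, amplified, barcoded and sequenced. Ligand, if used, was added 1 h before transfection. RNA level was derived from RNA reads divided by DNA reads and normalized to a spiked-in non-cleaving sequence or to the top sequences. This was multiplied by 100 and log10-transformed, with the top set of 25 sequences and a ≥100 DNA read minimum.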

cyclic di-GMP [2] = variants of: B1; assay: normalized RNA/DNA level with ligand (relative to sTRSVctl = 100) (log10 (% of sTRSVctl)); HEK293T; ligand: cyclic di-GMP (c-di-GMP-II aptamer); ligand concentration (+) RNA-Seq: 1 mM; higher = less ribozyme self-cleavage, higher mRNA level; details: reporter: mCherry (pCS4076), ligand present: yes
Summary of the method: as §1

| Variant | normalized RNA/DNA level without ligand (log10) (cyclic di-GMP [1]) | normalized RNA/DNA level with ligand (log10) (cyclic di-GMP [2]) |
| --- | --- | --- |
| ACGCAA | 1.47 ± 0.075 | 1.64 ± 0.11 |
| ACGCAC | 1.61 ± 0.018 | 1.79 ± 0.11 |
| ACGCAU | 1.42 ± 0.15 | 1.68 ± 0.075 |
| UCGAUC | 1.62 ± 0.032 | 1.79 ± 0.16 |
| UCGAUG | 1.54 ± 0.1 | 1.72 ± 0.14 |
| CCGCGA | 1.59 ± 0.053 | 1.76 ± 0.07 |
| CCGCGC | 1.74 ± 0.026 | 1.87 ± 0.098 |
| CCGCGU | 1.69 ± 0.02 | 1.84 ± 0.17 |
| CCGCGG | 1.73 ± 0.044 | 1.85 ± 0.056 |
| ACGGGU | 1.42 ± 0.083 | 1.58 ± 0.092 |
| ACGGGG | 1.693 ± 0.015 | 1.82 ± 0.1 |
| ACGGGC | 1.7 ± 0.073 | 1.88 ± 0.1 |
| CCCUAC | 1.71 ± 0.026 | 1.82 ± 0.1 |
| CCCUAU | 1.62 ± 0.048 | 1.8 ± 0.069 |
| CCCUAA | 1.45 ± 0.081 | 1.64 ± 0.13 |
| ACGUAG | 1.55 ± 0.021 | 1.72 ± 0.14 |
| ACGUAC | 1.58 ± 0.053 | 1.78 ± 0.077 |
| CCGGUC | 1.622 ± 0.0071 | 1.83 ± 0.073 |
| ACGACG | 1.57 ± 0.058 | 1.74 ± 0.082 |
| ACGACU | 1.51 ± 0.085 | 1.73 ± 0.14 |
| ACGACA | 1.52 ± 0.087 | 1.74 ± 0.085 |
| CCGUAC | 1.62 ± 0.027 | 1.75 ± 0.11 |
| CCGUAG | 1.32 ± 0.11 | 1.55 ± 0.14 |
| CCGUGG | 1.53 ± 0.061 | 1.69 ± 0.14 |

| Variant | normalized RNA/DNA level without ligand (log10) (cyclic di-GMP [1]) | normalized RNA/DNA level with ligand (log10) (cyclic di-GMP [2]) |
| --- | --- | --- |
| CCGUGA | 1.51 ± 0.067 | 1.7 ± 0.078 |
| CCGUGC | 1.58 ± 0.036 | 1.76 ± 0.086 |
| CCGUGU | 1.66 ± 0.039 | 1.86 ± 0.095 |
| ACGAUC | 1.56 ± 0.074 | 1.75 ± 0.085 |
| ACGAUA | 1.45 ± 0.05 | 1.68 ± 0.12 |
| GCGCAG | 1.78 ± 0.023 | 1.9 ± 0.094 |
| GCGCAA | 1.57 ± 0.044 | 1.72 ± 0.13 |
| GCGCAC | 1.51 ± 0.075 | 1.66 ± 0.075 |
| CCCGUU | 1.74 ± 0.032 | 1.87 ± 0.089 |
| UCCUCU | 1.74 ± 0.06 | 1.87 ± 0.13 |
| GCGUUC | 1.34 ± 0.19 | 1.55 ± 0.13 |
| GCGUUA | 1.54 ± 0.054 | 1.75 ± 0.11 |
| GCGUUG | 1.56 ± 0.042 | 1.75 ± 0.11 |
| GCGACU | 1.57 ± 0.018 | 1.73 ± 0.089 |
| GCGACA | 1.52 ± 0.091 | 1.73 ± 0.084 |
| CCGAGG | 1.624 ± 0.0052 | 1.8 ± 0.071 |
| CCGAGU | 1.63 ± 0.025 | 1.8 ± 0.13 |
| UCGGCC | 1.85 ± 0.024 | 1.95 ± 0.054 |
| UCGGCG | 1.87 ± 0.015 | 1.96 ± 0.084 |
| UCGUGG | 1.738 ± 0.004 | 1.89 ± 0.11 |
| UCGUGA | 1.47 ± 0.082 | 1.73 ± 0.09 |
| UCGUGU | 1.617 ± 0.0058 | 1.81 ± 0.1 |
| UCGUGC | 1.67 ± 0.017 | 1.86 ± 0.12 |
| ACGUGC | 1.59 ± 0.036 | 1.8 ± 0.065 |

| Variant | normalized RNA/DNA level without ligand (log10) (cyclic di-GMP [1]) | normalized RNA/DNA level with ligand (log10) (cyclic di-GMP [2]) |
| --- | --- | --- |
| CCGCCU | 1.7 ± 0.0065 | 1.84 ± 0.099 |
| CCGCCG | 1.738 ± 0.01 | 1.82 ± 0.1 |
| CCCUUC | 1.729 ± 0.0068 | 1.86 ± 0.082 |
| CCCUUU | 1.61 ± 0.053 | 1.83 ± 0.096 |
| CCCUUG | 1.643 ± 0.0095 | 1.81 ± 0.13 |
| CCCUUA | 1.47 ± 0.04 | 1.7 ± 0.15 |
| ACGAGG | 1.5 ± 0.06 | 1.69 ± 0.1 |
| ACGAGC | 1.62 ± 0.049 | 1.76 ± 0.084 |
| UCGUUG | 1.61 ± 0.14 | 1.83 ± 0.096 |
| UCGUUC | 1.739 ± 0.0071 | 1.88 ± 0.11 |
| UCGUUU | 1.68 ± 0.042 | 1.85 ± 0.11 |
| UCGUUA | 1.44 ± 0.076 | 1.63 ± 0.051 |
| ACCUAG | 1.64 ± 0.053 | 1.78 ± 0.086 |
| ACCUAC | 1.7 ± 0.02 | 1.85 ± 0.075 |
| UCGCCU | 1.76 ± 0.029 | 1.92 ± 0.12 |
| UCGCCG | 1.81 ± 0.091 | 1.95 ± 0.14 |
| GCCUAC | 1.55 ± 0.059 | 1.72 ± 0.047 |
| GCCUAG | 1.74 ± 0.068 | 1.86 ± 0.16 |
| GCCUAU | 1.662 ± 0.0027 | 1.85 ± 0.13 |
| GCCUAA | 1.59 ± 0.071 | 1.78 ± 0.055 |
| GCGUCA | 1.624 ± 0.0059 | 1.79 ± 0.15 |
| GCGUCU | 1.67 ± 0.03 | 1.83 ± 0.1 |
| GCGUCC | 1.63 ± 0.055 | 1.81 ± 0.047 |
| ACGCCA | 1.675 ± 0.012 | 1.87 ± 0.09 |

| Variant | normalized RNA/DNA level without ligand (log10) (cyclic di-GMP [1]) | normalized RNA/DNA level with ligand (log10) (cyclic di-GMP [2]) |
| --- | --- | --- |
| ACGCCG | 1.74 ± 0.046 | 1.85 ± 0.067 |
| ACGCCU | 1.64 ± 0.099 | 1.8 ± 0.036 |
| UCGCGG | 1.78 ± 0.051 | 1.85 ± 0.14 |
| UCGCGU | 1.66 ± 0.083 | 1.84 ± 0.089 |
| UCGCGC | 1.73 ± 0.029 | 1.89 ± 0.093 |
| GCCUUA | 1.657 ± 0.0086 | 1.82 ± 0.1 |
| GCCUUC | 1.61 ± 0.038 | 1.79 ± 0.099 |
| GCCUUU | 1.69 ± 0.051 | 1.88 ± 0.14 |
| GCCUUG | 1.576 ± 0.007 | 1.81 ± 0.1 |
| CCGGAG | 1.31 ± 0.13 | 1.52 ± 0.14 |
| UCGGUG | 1.68 ± 0.049 | 1.78 ± 0.13 |
| UCGGUU | 1.61 ± 0.093 | 1.79 ± 0.082 |
| GCGGGA | 1.62 ± 0.078 | 1.72 ± 0.068 |
| GCGGGU | 1.769 ± 0.0058 | 1.87 ± 0.12 |
| GCGGGC | 1.53 ± 0.028 | 1.69 ± 0.064 |
| GCGGGG | 1.74 ± 0.035 | 1.83 ± 0.12 |
| CCGCUG | 1.28 ± 0.15 | 1.56 ± 0.12 |
| CCGCUC | 1.66 ± 0.029 | 1.85 ± 0.094 |
| CCGCUA | 1.43 ± 0.078 | 1.68 ± 0.091 |
| UCGGAC | 1.66 ± 0.029 | 1.8 ± 0.13 |
| CCGGCC | 1.77 ± 0.04 | 1.86 ± 0.15 |
| CCGGCA | 1.7 ± 0.026 | 1.79 ± 0.12 |
| CCGGCG | 1.69 ± 0.023 | 1.77 ± 0.05 |
| GCGCUG | 1.77 ± 0.049 | 1.84 ± 0.14 |

| Variant | normalized RNA/DNA level without ligand (log10) (cyclic di-GMP [1]) | normalized RNA/DNA level with ligand (log10) (cyclic di-GMP [2]) |
| --- | --- | --- |
| GCGCUU | 1.61 ± 0.043 | 1.78 ± 0.13 |
| GCGUGG | 1.71 ± 0.051 | 1.78 ± 0.14 |
| GCGUGC | 1.68 ± 0.0027 | 1.81 ± 0.14 |
| UCGCUU | 1.66 ± 0.018 | 1.84 ± 0.11 |
| UCGCUG | 1.69 ± 0.0043 | 1.84 ± 0.082 |
| UCGCUC | 1.742 ± 0.011 | 1.87 ± 0.14 |
| UCGCUA | 1.46 ± 0.026 | 1.7 ± 0.047 |
| ACGCGC | 1.629 ± 0.016 | 1.79 ± 0.11 |
| ACGCGA | 1.4 ± 0.11 | 1.62 ± 0.11 |
| ACGCGU | 1.504 ± 0.0098 | 1.71 ± 0.14 |
| CCGCAU | 1.6 ± 0.035 | 1.77 ± 0.096 |
| CCGCAG | 1.54 ± 0.054 | 1.67 ± 0.12 |
| CCGCAA | 1.447 ± 0.014 | 1.68 ± 0.14 |
| UCGUAA | 1.44 ± 0.1 | 1.64 ± 0.15 |
| UCGUAU | 1.53 ± 0.068 | 1.76 ± 0.12 |
| UCGUAG | 1.63 ± 0.059 | 1.82 ± 0.11 |
| GCGAGU | 1.53 ± 0.071 | 1.69 ± 0.11 |
| GCGAGG | 1.613 ± 0.016 | 1.75 ± 0.16 |
| GCGAGA | 1.41 ± 0.14 | 1.63 ± 0.073 |
| GCGAGC | 1.55 ± 0.066 | 1.71 ± 0.04 |
